# Earlier results in patent publication US7235522B2, “Use of microparticles having a protein and an antibody adsorbed thereon for preparing a pharmaceutical composition for intranasal administration” (priority 1997, dated 2007).
# Settings: in vivo
substance,measurement,value
insulin [insulin (51 AA)],absorption of proteins administered by nasal route,almost zero
